Experiments:
lung fibroblasts = assay: Collagen production, metabolic labeling with 14C-proline, PAGE and autoradiography; format: cell-based, human
Description: Collagen Production Assays. Production of collagen was assessed using metabolic labeling with ^14C-proline and Western blotting with anti-collagen type I antibody. For metabolic labeling of collagen, fibroblasts were plated at 2×10^5 cells/well in 6-well plates (Costar, Cambridge, Mass.), in duplicates, incubated overnight in 3 ml/well of high serum medium, and then for 24 h in low-serum medium. After that, the culture medium was replaced with 1 ml/well of fresh low serum medium with or without added test substances and containing ^14C-proline at 1 μCi/ml (Amersham Pharmacia Biotech). After incubation for the desired periods of time, the cell culture supernatants were collected, rapidly frozen in liquid nitrogen and freeze-dried at −70° C. The pellets were dissolved in 100 μl of reducing Laemmli buffer per 1 ml of the cell culture supernatant, and the samples were electrophoretically separated in 7.5% acrylamide gels. Alternatively, samples were concentrated 10-fold by filter centrifugation on 30K Ultrafree-MC filters (Millipore, Bedford, Mass.). Fluorographic images were developed using EN[3H]ANCE autoradiography enhancer (NEN, Boston, Mass.). Gel images were acquired using Storm densitometer (Molecular Dynamics, Sunnyvale, Calif.), and the densities of the bands were analyzed with ImageQuant software (Molecular Dynamics). Dependence of collagen production by fibroblast cultures on the dose of PARC and duration of stimulation were evaluated using one-way ANOVA with post hoc testing.
The identity of collagen bands was confirmed by sensitivity to pepsin and collagenase (both from Sigma) digestion. For pepsin digestion, 2 μl of 1 Macetic acid were added to 40 μl of concentrated fibroblast culture supernatant, followed by 1 μl of pepsin stock, to achieve final concentration of pepsin as indicated in the text. After 15 min of digestion at room temperature, reaction was stopped with 4 μl of 1 M Tris base and 40 μl of reducing Laemmli buffer. For collagenase digestion, 1 μl of 4 U/ml bacterial collagenase and 1 μl of protease inhibitor cocktail (Sigma) were added to 40 μl of sample and digestion performed at room temperature for 30 min. The bacterial collagenase was highly purified and had minimal clostripain and neutral protease activity, as tested by the manufacturer, according to the product information sheet.
To test effects of rhPARC on collagen protein production by lung and dermal fibroblast cell lines, fibroblast cultures were incubated for 48 h with or without 30 ng/ml and 300 ng/ml rhPARC in the low-serum cell culture medium containing 14Cproline for metabolic labeling of collagen. Fibroblast culture supernatants contained two 14C-proline containing bands in gel electrophoresis under reducing conditions (FIGS. 13A and 13B). Digestion with chromatographically pure bacterial collagenase in the presence of protease inhibitors eliminated the bands completely (FIG. 13A). To confirm the identity of these bands, we conducted Western blotting experiments in reducing conditions of fibroblast culture supernatants using an anti-collagen type I antibody, that recognizes α1(I) collagen but not other collagen chains. Digestion with pepsin caused expected decrease in the apparent molecular weight of the immunoreactive collagen from ˜175 kD to ˜125 kD (FIG. 13C).

Sp1 [1] = assay: Sp1 immunoprecipitation and anti-phosphoserine Western blot; format: cell-based, human; conditions: fibroblasts activated with rhPARC up to 24 hours
Description: To determine if PARC stimulated phosphorylation of Sp1 and Smad3, these factors were immunoprecipitated from lysates of fibroblasts that had been activated with recombinant human PARC for up to 24 hours, and the levels of their phosphorylation were tested in Western blotting assays using anti-phosphoserine and anti-phospho-Smad2/3 antibodies. Equal loading was controlled by stripping the membranes and re-developing them with anti-Sp1, anti-Smad3 and anti-Smad2/3 antibodies (FIG. 17).
Preparation of fibroblast lysates, immunoprecipitation of Sp1 and Smad2/3, normalization of protein concentration in the samples with BioRad assays, electrophoretic separation, Western blotting, membrane stripping and re-development with different antibodies were performed as described in Atamas et al. (Am. J. Respir. Cell. Mol., 29:743-749 (2003); J. Immunol. 168: 1139-1145 (2002); and Arthritis Rheum., 42:1168-1178 (1999)), which are hereby incorporated by reference. Rabbit antibodies for total Smad2/3 and Sp1 were from Upstate (Waltham, Masss.). Antiphospho-Smad2/3 antibody and goat antibody for total Smad3 were from Santa Cruz Biotechnology (Santa Cruz, Calif.), as was anti-gp130 antibody used to confirm equal loading of the samples. Antiphosphoserine antibody was from Biomol (Plymouth Meeting, Pa.).

Sp1 [2] = assay: TranSignal protein/DNA arrays of nuclear lysates; format: cell-based, human; conditions: LF1 and LF2
[3] = test system: mink lung epithelial cells; assay: Mink lung epithelial cell proliferation assay (thymidine incorporation); format: cell-based
Description: Mink Lung Epithelial Cell Proliferation Assay for Active TGF-β. Mink lung epithelial cell line CCL-64 was purchased from American Type Culture Collection (ATCC, Manassas, Va.) and maintained in high-serum medium. For proliferation assays, these cells were plated in 96-well plates at 1×10^4 cells/well in low-serum fibroblast cell culture medium and incubated overnight in humidified atmosphere of 5% CO2 at 37° C. The medium was then replaced with fibroblast cell culture supernatants or titrated dilutions rhTGF-β in low-serum medium, with and without neutralizing anti-pan-TGF-β antibody (clone 1D11 from R&D Systems), and incubation continued for additional 24 hours. Six hours before the end of the assay, wells were pulsed with 1 μCi of 3H-thymidine (Amersham). Quadruplicate cultures were harvested automatically and tritiated thymidine incorporation was measured with a TopCount NXT liquid scintillation counter (Perkin Elmer, Downers Grove, Ill.). Data were expressed as percent inhibition (versus low-serum medium used as a negative control), neutralized by 1 μg/ml of anti-TGF-β antibody (this concentration of the antibody was established in preliminary experiments as sufficient to completely abrogate the inhibitory effect of the fibroblast conditioned medium on mink lung epithelial cell proliferation). […]

B1: rhPARC: Recombinant human pulmonary and activation-regulated chemokine (CC chemokine CCL18), purchased from R&D Systems and Cell Sciences (protein)
chain: AQVGTNKELCCLVYTSWQIPQKFIVDYSETSPQCPKPGVILLTKRGRQICADPNKKWVQKYISDLKLNA
Lung fibroblasts; 48 h, 300 ng/ml rhPARC, responding lung and dermal lines
  average increase in the density of collagen bands: 3.4±0.9 fold
Lung fibroblasts; 48 h, five out of seven tested lung and dermal fibroblast lines
  increase of fibroblast production of collagen over control: more than 3 fold
Lung fibroblasts; LF1 cells, 300 ng/ml rhPARC, 48 h
  combined density of procollagen bands, fold higher than non-stimulated control: 3.4 fold
Lung fibroblasts; LF2 cells, 30 ng/ml rhPARC, 48 h
  combined density of procollagen bands, fold higher than non-stimulated control: 2.7 fold
Lung fibroblasts; LF2 cells, 300 ng/ml rhPARC, 48 h
  combined density of procollagen bands, fold higher than non-stimulated control: 4.4 fold
Lung fibroblasts; up to 72 h, rhPARC up to 1,000 ng/ml
  response of collagen production in one lung and one dermal fibroblast line: non-responsive
Sp1 [1]
  level of Sp1 phosphorylation: consistently increased
Sp1 [2]
  DNA binding by Sp1 (protein/DNA arrays): consistently increased
[3]
  direct effect on proliferation of mink lung epithelial cells: did not affect proliferation of mink lung epithelial cells

From US20060009452A1, “Therapeutic targeting of PARC/CCL18 and its signaling in pulmonary fibrosis” (priority 2004, published 2006)
